Assay results taken from patent publication US5591427A, “Human Interleukin-3(Il-3) variants and their use to promote or antagonize IL-3-mediated processes” (Medvet Science Pty. Ltd., priority 1979, dated 1997).

Columns and labels:
[1] = target: T1, IL-3R α chain and β chain (Homo sapiens, UniProt P26951+P32927); assay: Competition for 125I-IL-3 binding to reconstituted IL-3 high affinity receptor (α and β chains) in COS cells
T1 construct: amplify the complete coding region of the IL-3R alpha chain; also to amplify the coding region of the IL-3R α chain; expressed in transfected cells; host or cells: COS cells (pCDM8 vector, electroporation)
T1 sequence (P26951 19-378): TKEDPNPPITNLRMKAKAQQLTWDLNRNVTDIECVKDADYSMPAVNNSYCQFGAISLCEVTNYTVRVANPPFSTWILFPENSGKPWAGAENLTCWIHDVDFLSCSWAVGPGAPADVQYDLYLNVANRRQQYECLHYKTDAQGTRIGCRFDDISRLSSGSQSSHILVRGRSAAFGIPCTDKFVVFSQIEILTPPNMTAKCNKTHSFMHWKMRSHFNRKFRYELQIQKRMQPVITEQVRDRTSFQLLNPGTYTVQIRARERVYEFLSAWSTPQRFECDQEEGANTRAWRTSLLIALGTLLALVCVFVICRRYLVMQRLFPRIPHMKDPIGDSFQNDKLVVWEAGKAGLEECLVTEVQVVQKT
T1 sequence (P32927 17-897): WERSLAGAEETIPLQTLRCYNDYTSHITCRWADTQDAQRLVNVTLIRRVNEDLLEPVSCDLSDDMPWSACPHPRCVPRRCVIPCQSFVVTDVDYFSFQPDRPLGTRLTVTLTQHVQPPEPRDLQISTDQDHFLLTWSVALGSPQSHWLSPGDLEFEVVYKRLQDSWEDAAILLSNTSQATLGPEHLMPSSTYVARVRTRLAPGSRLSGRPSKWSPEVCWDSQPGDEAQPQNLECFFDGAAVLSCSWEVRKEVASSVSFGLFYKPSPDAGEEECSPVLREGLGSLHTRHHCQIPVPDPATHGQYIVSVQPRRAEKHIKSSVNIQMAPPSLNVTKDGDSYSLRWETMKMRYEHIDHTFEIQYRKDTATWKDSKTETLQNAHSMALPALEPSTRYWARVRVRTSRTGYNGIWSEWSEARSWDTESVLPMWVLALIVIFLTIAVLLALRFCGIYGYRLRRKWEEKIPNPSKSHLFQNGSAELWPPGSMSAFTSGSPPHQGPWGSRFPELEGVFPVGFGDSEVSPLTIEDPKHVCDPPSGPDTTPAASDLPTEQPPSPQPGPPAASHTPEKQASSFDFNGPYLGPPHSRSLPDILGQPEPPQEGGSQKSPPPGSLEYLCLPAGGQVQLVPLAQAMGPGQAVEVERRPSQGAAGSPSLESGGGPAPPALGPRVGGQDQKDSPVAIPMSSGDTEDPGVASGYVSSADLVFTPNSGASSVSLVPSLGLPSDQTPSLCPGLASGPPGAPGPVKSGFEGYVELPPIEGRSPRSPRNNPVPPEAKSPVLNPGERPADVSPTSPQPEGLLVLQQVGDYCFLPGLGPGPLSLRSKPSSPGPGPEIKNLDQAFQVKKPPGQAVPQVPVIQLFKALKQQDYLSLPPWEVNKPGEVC
From the text: PolyA+ RNA was isolated from the human cord blood cell line KMT2. Oligo dT primed double stranded cDNA was synthesised and used as template for PCR amplification. The PCR primers were designed to amplify the complete coding region of the IL-3R alpha chain and also to amplify the coding region of the […]. The PCR products were cloned into the vector pGEM-2 for sequence verification, and then into the eukaryotic expression vector, pCDM8. The […]-containing plasmid was transfected into COS cells by electroporation, either on its own or in conjunction with the […], and after two days the cells were used for binding studies.

[2] = system: chronic myeloid leukaemic (CML) cells; assay: Proliferation of chronic myeloid leukaemic (CML) cells, [3H] thymidine incorporation; assay type: cell-based, human
Experimental: (b ) Proliferation of chronic myeloid leukaemic (CML) cells: Primarily CML cells from one patient were selected for their ability to incorporate [^3 H] thymidine in response to IL-3 as described (Lopez el. al., supra ). Briefly, CML cells were placed at 2×10^5 cells/mL fresh medium containing different concentrations of IL-3. Cells were incubated for 24 hours in a flat bottom 96-well NUNCLON plates (2×10^4 cells/well) before being pulsed with [^3 H] thymidine (0.5 μCi/well) for four more hours at 37° C. The cells were then harvested onto glass filters with a Titertek automated cell harvester and counted into a Beckman liquid scintillation counter. Data are expressed in cpm, and each point is the mean of six replicates.

monocytes = assay: Stimulation of human monocyte adherence (51Cr adhesion assay); assay type: cell-based
Experimental: (a) Monocyte purification. Monocytes were purified from the peripheral blood of normal donors, obtained from the Adelaide Red Cross Transfusion Service, as previously described (Elliott et. al., 1990, J. Immunol., 145, 167-171). In brief, mononuclear cells were prepared by centrifugation of whole blood on lymphoprep cushions (Nyegaard, Oslo, Norway) and washed twice in HBSS, 0.02% EDTA, 0.1% heat inactivated FCS (Flow Laboratories, North Ryde, Australia) and monocytes were purified in a Beckman J-6M/E elutriator using the Sanderson chamber, a flow rate of 12 ml/min and a constant rotor speed of 2050 rpm. Cells remaining in the chamber after 30 min were collected, washed twice in HBSS, and used immediately. Using these methods, monocyte purity as assessed by morphology and nonspecific-esterase staining was always >90% and usually >95%. The major contaminating cell types were lymphocytes and granulocytes (principally basophils).
(b) Adhesion assay. Adhesion was measured by an isotopic method essentially as described (Elliott et. al., supra). In brief, purified monocytes (0.5 to 1×10^8) were resuspended in 1 ml RPMI 1640 with 0.1% FCS and antibiotics and incubated for 30 min at 37° C. with 500 μCi^51 Cr in the form of sodium chromate (Amersham International., Buckinghamshire, England). Cells were washed thrice in RPMI 1640 and resuspended in culture medium consisting of RPMI 1640, 10% FCS, antibiotics, and 0.2% sodium bicarbonate. For measurement of adhesion, 1 to 2.5×10^5 monocytes were aliquotted per well in 96-well microtitre plates (Nunc, Karnstrup, Denmark) together with stimuli or control medium to a total volume of […], and incubated for the indicated periods. […] At harvest, samples of supernatant were taken to assess spontaneous ^51 Cr release (usually <10% of cell-associated radioactivity), wells were washed three times with RPMI 1640 at 37° C., and residual adherent cells lysed in 10 mM Tris-hydrochloride, and 1% Nonident p40 detergent (Sigma). Lysates were transferred to tubes and counted in a Packard auto-gamma 5650. Percent adherence was calculated according to the formula: [formula]

[3] = concentration of IL-3 mutant giving 50% of biological activity compared to that of wild type IL-3

fold higher affinity than wild type IL-3 ([1]; COS cells transfected with IL-3R α chain and β chain cDNAs, E. coli produced protein): 15 fold
binding to cotransfected α and β chains ([1]; FIG. 7): higher affinity
B1: M37: human IL-3 mutant, Asp 101 replaced by Ala and Lys 116 by Val (protein, UniProt P08700 20-152, looked up, variant D101A K116V)
Interleukin-3: APMTQTTPLKTSWVNCSNMIDEIITHLKQPPLPLLDFNNLNGEDQDILMENNLRRPNLEAFNRAVKSLQNASAIESILKNLLPCLPLATAAPTRHPIHIKAGDWNEFRRKLTFYLVTLENAQAQQTTLSLAIF
stimulation of CML cell proliferation ([2]; FIG. 2, FIG. 8): more potent than the wild type IL-3
Relative biological activity, PROLIFERATION CML [2, 3]: 1694
increase in biological activity versus wild type ([2]; summary statement over the functional assays of the Table (colonies, CML, monocyte)): 15-20 fold
stimulation of monocyte adherence (monocytes; FIG. 3): more potent than the wild type IL-3
Relative biological activity, MONOCYTE (monocytes; [3]): 2100
